For the test, the target named is SARS-CoV-2 S protein S1 (SARS-CoV-2, UniProt P0DTC2 16-685).

The EC50 is the concentration that produces a half-maximal response. Read a high EC50 as a need for much substance.

B1: monoclonal antibody (mAb) m31A7 (antibody, V domains shown)
VH: EVQLQQSGPEMVKPGASVKISCKTSGYTFTEYTIYWVKQSHGKSLEWLGGINPNIGDTTYNQKFKGKATLTVDTSSSTAYMELRSLTSEDSAVYYCAREVYNYSFAYWGQGTLVTVSA
VL: DIVMSQSPSSLAVSVGEKVTMSCKSSQSLLYSSNQKNYLAWYQQKLGQTPKLLIYWASSRESGVPDRFTGSGSGTDFTLTISSVRAEDLAVYYCQQYYRYPLTFGVGTKLELKR
In turn, B1 had an EC50 of 23.5 pM.

These data come from patent US20240016917A1 (ACADEMIA SINICA, published 2024).
